# Source: article PMC9036094, “Antigen-derived peptides engage the ER stress sensor IRE1α to curb dendritic cell cross-presentation” (The Journal of Cell Biology, 2022)
# B1: ovalbumin: classical protein antigen ovalbumin (Sigma-Aldrich) (protein)
# chain: MGSIGAASMEFCFDVFKELKVHHANENIFYCPIAIMSALAMVYLGAKDSTRTQINKVVRFDKLPGFGDSIEAQCGTSVNVHSSLRDILNQITKPNDVYSFSLASRLYAEERYPILPEYLQCVKELYRGGLEPINFQTAADQARELINSWVESQTNGIIRNVLQPSSVDSQTAMVLVNAIVFKGLWEKAFKDEDTQAMPFRVTEQESKPVQMMYQIGLFRVASMASEKMKILELPFASGTMSMLVLLPDEVSGLEQLESIINFEKLTEWTSSNVMEERKIKVYLPRMKMEEKYNLTSVLMAMGITDVFSSSANLSGISSAESLKISQAVHAAHAEINEAGREVVGSAEAGVDAASVSEEFRADHPFLFCIKHIATNAVLFFGRCVSP
# Test system: PERK (ATF4, CHOP) in BMDCs
# Assay: PERK activation in BMDCs (immunoblot of ATF4 and CHOP)
# Format: cell-based, mouse
# Conditions: MG132 5 μM or ovalbumin 500 μg/ml, in words
# Description: Figure S1. Antigen pulsing of BMDCs activates IRE1α. (A) BMDCs were treated with MG132 (5 μM) or ovalbumin (500 μg/ml) for indicated time points and analyzed by IB. (B) BMDCs were pulsed with ovalbumin (500 μg/ml) and G9668 (3 μM) for indicated time periods and analyzed by IB. (C) Molecular structure, potency, and kinase selectivity of G9668. (D) Schematic representation of G9668 interaction with 220 kinases at 1 μM. Size and color of circles represent interaction strength. Analysis was conducted by KinomeScan. (E) BMDCs were pulsed for 4 h with APC-tagged ovalbumin or soluble CD4-Fc protein (500 μg/ml) with amiloride (10 μM); uptake of protein was assayed by flow cytometry (n = 3). (F) WT or MyD88 KO Flt3L-derived BMDCs were pulsed with ovalbumin (500 μg/ml) or soluble CD4-Fc protein (500 μg/ml), or treated with LPS (10 μg/ml) for 4 h and analyzed by IB. (G) MEFs and BMDCs were pulsed with ovalbumin or treated with Tg (100 nM) for 4 h and analyzed by IB. Images in A, B, F, and G represent at least two similar experiments, and molecular weights represent kD; E bar graphs represent mean ± SD from three independent biological repeats. Analysis for E was performed using unpaired, two-tailed t test; *, P ≤ 0.05; **, P ≤ 0.01. Source data are available for this figure: SourceData FS1. […]
molecule,measurement,value
B1,PERK activation,did not show a measurable response
